Changes are numbered by the printed parent chain.
B1: Aptamer 216 (ssRNA)
RNA: CUGUGGGAAAUGUGAGAUGGGUUGCAG
modifications: 2'-F G, 2'-OMe A/C/U, 5' C6NH2, 3' idT
B2: Aptamer 155 (ssRNA)
RNA: CGGUGGGAACCGUGAGAUGGGGUGCCG
modifications: 2'-F G, 2'-OMe A/C/U, 5' C6NH2, 3' idT
B3: Aptamer 215 (ssRNA)
RNA: CGGUGGGAAAUGUGAGAUGGGAUGCCG
modifications: 2'-F G, 2'-OMe A/C/U, 5' C6NH2, 3' idT
B4: Aptamer 121 (ssRNA)
RNA: CGGUGGGACACCCGAGAUGGGUGGCCG
modifications: 2'-F G, 2'-OMe A/C/U, 5' C6NH2, 3' idT
B5: Aptamer 113 (ssRNA)
RNA: CGGUGGGAAAUAUGAGAUGGGUUGCCG
modifications: 2'-F G, 2'-OMe A/C/U, 5' C6NH2, 3' idT
B6: Aptamer 115 (ssRNA)
RNA: CGGUGGGAAAUGCGAGAUGGGUUGCCG
modifications: 2'-F G, 2'-OMe A/C/U, 5' C6NH2, 3' idT
B7: Aptamer 112 (ssRNA)
RNA: CGGUGGGAAAUCUGAGAUGGGUUGCCG
modifications: 2'-F G, 2'-OMe A/C/U, 5' C6NH2, 3' idT
B8: Aptamer 114 (ssRNA)
RNA: CGGUGGGAAAUUUGAGAUGGGUUGCCG
modifications: 2'-F G, 2'-OMe A/C/U, 5' C6NH2, 3' idT
B9: Aptamer 154 (ssRNA)
RNA: CGGUGGGAACUGUGAGAUGGGGUGCCG
modifications: 2'-F G, 2'-OMe A/C/U, 5' C6NH2, 3' idT
B10: Aptamer 118 (ssRNA)
RNA: CGGUGGGACACGCGAGAUGGGUGGCCG
modifications: 2'-F G, 2'-OMe A/C/U, 5' C6NH2, 3' idT
B11: Aptamer 120 (ssRNA)
RNA: CGGUGGGAAACCCGAGAUGGGUUGCCG
modifications: 2'-F G, 2'-OMe A/C/U, 5' C6NH2, 3' idT
B12: Aptamer 218 (ssRNA)
RNA: CGAUGGGAAAUGUGAGAUGGGUUGUCG
modifications: 2'-F G, 2'-OMe A/C/U, 5' C6NH2, 3' idT
B13: Aptamer 117 (ssRNA)
RNA: CGGUGGGAAACGCGAGAUGGGUUGCCG
modifications: 2'-F G, 2'-OMe A/C/U, 5' C6NH2, 3' idT
B14: Aptamer 119 (ssRNA)
RNA: CGGUGGGAAACCUGAGAUGGGUUGCCG
modifications: 2'-F G, 2'-OMe A/C/U, 5' C6NH2, 3' idT
B15: Aptamer 217 (ssRNA)
RNA: CGCUGGGAAAUGUGAGAUGGGUUGGCG
modifications: 2'-F G, 2'-OMe A/C/U, 5' C6NH2, 3' idT
B16: Aptamer 32 (ssRNA)
RNA: CGGUGGGAAAUGUGAGAUGGGUUGCCG
modifications: 2'-F G, 2'-OMe A/C/U, 5' C6NH2, 3' idT
B17: Aptamer 100 (ssRNA)
RNA: UGAUGACGGUAGAUUAUGGGAAGUGUGACCGCAUCU
modifications: 2'-F G, 2'-OMe A/C/U, 5' C6NH2, 3' idT
B18: Aptamer 110 (ssRNA)
RNA: B17 RNA with A16U, U17C
modifications: 2'-F G, 2'-OMe A/C/U, 5' C6NH2, 3' idT
B19: Aptamer 106 (ssRNA)
RNA: UGAUGACGAUAGAUUUCGGGUAGUGUGAUCGCAUCU
modifications: 2'-F G, 2'-OMe A/C/U, 5' C6NH2, 3' idT
B20: Aptamer 109 (ssRNA)
RNA: B17 RNA with U15A, U17C, A21U
modifications: 2'-F G, 2'-OMe A/C/U, 5' C6NH2, 3' idT
B21: Aptamer 103 (ssRNA)
RNA: B17 RNA with U17C, U24A
modifications: 2'-F G, 2'-OMe A/C/U, 5' C6NH2, 3' idT
B22: Aptamer 98 (ssRNA)
RNA: B17 RNA with U17C
modifications: 2'-F G, 2'-OMe A/C/U, 5' C6NH2, 3' idT
B23: Aptamer 102 (ssRNA)
RNA: UCAUGACGGUAGAUUACGGGUAGAGUGACCGCAUGU
modifications: 2'-F G, 2'-OMe A/C/U, 5' C6NH2, 3' idT
B24: Aptamer 108 (ssRNA)
RNA: B23 RNA with C2G, U15A, G35C
modifications: 2'-F G, 2'-OMe A/C/U, 5' C6NH2, 3' idT
B25: Aptamer 111 (ssRNA)
RNA: B17 RNA with A21U
modifications: 2'-F G, 2'-OMe A/C/U, 5' C6NH2, 3' idT
B26: Aptamer 95 (ssRNA)
RNA: B19 RNA with A9G, U16C, U29C
modifications: 2'-F G, 2'-OMe A/C/U, 5' C6NH2, 3' idT
B27: Aptamer 97 (ssRNA)
RNA: B17 RNA with U17C, A21G
modifications: 2'-F G, 2'-OMe A/C/U, 5' C6NH2, 3' idT
B28: Aptamer 96 (ssRNA)
RNA: B17 RNA with U17C, A21C
modifications: 2'-F G, 2'-OMe A/C/U, 5' C6NH2, 3' idT
B29: Aptamer 104 (ssRNA)
RNA: B17 RNA with U17A, A21U
modifications: 2'-F G, 2'-OMe A/C/U, 5' C6NH2, 3' idT
B30: Aptamer 101 (ssRNA)
RNA: B23 RNA with A16U, A24U
modifications: 2'-F G, 2'-OMe A/C/U, 5' C6NH2, 3' idT
B31: Aptamer 105 (ssRNA)
RNA: B17 RNA with U17C, A21U, A22U
modifications: 2'-F G, 2'-OMe A/C/U, 5' C6NH2, 3' idT
B32: Aptamer 208 (ssRNA)
RNA: UGCCGACGGUAGAUUACGGGUAGAGUGACCGCGGCU
modifications: 2'-F G, 2'-OMe A/C/U, 5' C6NH2, 3' idT
B33: Aptamer 210 (ssRNA)
RNA: B32 RNA with C3G, G34C
modifications: 2'-F G, 2'-OMe A/C/U, 5' C6NH2, 3' idT
B34: Aptamer 43 (ssRNA)
RNA: GCGACGGCAGAUUACGGGUAGAGUGGCCGCGC
modifications: 2'-F G, 2'-OMe A/C/U, 5' C6NH2, 3' idT
B35: Aptamer 183 (ssRNA)
RNA: B23 RNA
modifications: 2'-F G, 2'-OMe A/C/U, 5' C6NH2, 3' idT
B36: Aptamer 185 (ssRNA)
RNA: B23 RNA with C2G, G8A, C30U, G35C
modifications: 2'-F G, 2'-OMe A/C/U, 5' C6NH2, 3' idT
B37: Aptamer 184 (ssRNA)
RNA: B23 RNA with C2G, G5C, C32G, G35C
modifications: 2'-F G, 2'-OMe A/C/U, 5' C6NH2, 3' idT
B38: Aptamer 186 (ssRNA)
RNA: B19 RNA with U16A, U24A
modifications: 2'-F G, 2'-OMe A/C/U, 5' C6NH2, 3' idT
B39: Aptamer 209 (ssRNA)
RNA: B32 RNA with C4U, G33A
modifications: 2'-F G, 2'-OMe A/C/U, 5' C6NH2, 3' idT
B40: Aptamer 187 (ssRNA)
RNA: B23 RNA with A3U, G35C
modifications: 2'-F G, 2'-OMe A/C/U, 5' C6NH2, 3' idT
B41: Aptamer 38 (ssRNA)
RNA: GAUGACGGUAGAUUACGGGUAGAGUGACCGCAUC
modifications: 2'-F G, 2'-OMe A/C/U, 5' C6NH2, 3' idT
B42: Aptamer 92 (ssRNA)
RNA: B41 RNA with A2G, U3C, A32G, U33C
modifications: 2'-F G, 2'-OMe A/C/U, 5' C6NH2, 3' idT

Target: T1, Interleukin-8 (IL8, CXCL8), C-terminal His-tagged (Homo sapiens, UniProt P10145 SEQ:1-72)
Assay: competition; competition TR-FRET
Details: tags: C-terminal 6xHis (Sino Biological)
Protocol: (§1) Activity of each of these variants were tested using a time resolved competition TR-FRET assay in which the labeled parent Aptamer 3 was competed with increasing concentrations of unlabeled variants for binding to IL8 (FIG. 14). Briefly, 2-fold dilutions of thermally equilibrated aptamers were made in TR-FRET Buffer (50 mM MOPS, pH 7.4, 125 mM NaCl, 5 mM KCl, 50 μM CHAPS, 0.1 mg/mL BSA, 1 mM CaCl₂, and 1 mM MgCl₂). 5 μL of aptamer or control solution was added to 5 μl mix of 10 nM C-terminal His-tagged-IL8, 60 nM ALEXA FLUOR® 647-labeled Aptamer, and 5 nM anti-His-Eu (Perkin Elmer) in a black wall low volume 384 well plate (Greiner). For control, 5 μl of 1000-fold excess of unlabeled parent aptamer or 5 μl TR-FRET buffer alone was added to the mix of ALEXA FLUOR® 647-labeled aptamer, His-IL8, and anti-His-Eu. The plate was covered with a plate seal and subsequently incubated in the dark for 1 hour at room temperature. The plate was read on a Biotek CYTATION™ 5 plate reader. Samples were excited at 330 nm and fluorescent values were collected at 665 nm. Data analysis was performed by subtracting the background value and plotting as percent inhibition, normalized to baseline in the absence of competitor. The values were fit by [Inhibitor] vs. response—Variable slope (four parameters) using GraphPad Prism Version 7.0 and then normalized to aptamer control to obtain an IC₅₀ relative to parent aptamer. Data is presented as log values of relative IC₅₀.
To better understand the sequence requirements and confirm the stem structures of members of the Aptamer 8 family as determined from sequence covariation analysis from both the primary and secondary (degenerate) selections, a series of variants which included mutations and deletions to the predicted stems (Tables 45 and 46) were synthesized and screened. Activity of each of these variants was tested using a competition TR-FRET assay in which the labeled parent Aptamer 8 was competed with increasing concentration of unlabeled variants for binding to IL8 as described in Example 11.

Does B1 bind?
Result: binds

How did the binding signal turn out when B2 was run?
Its binding signal is > 10 fold worse than Aptamer 8.

Which binding signal does the source give for B3 here?
Its binding signal is > 10 fold worse than Aptamer 8.

With B4 as the binder, how does the binding signal read?
The binding signal was > 10 fold worse than Aptamer 8.

How did the binding signal turn out when B5 was run?
The binding signal was > 10 fold worse than Aptamer 8.

With B6 as the binder, how does the binding signal read?
The binding signal was > 10 fold worse than Aptamer 8.

For B7, which binding signal is on record?
Its binding signal is > 10 fold worse than Aptamer 8.

Which binding signal does the source give for B8 here?
The binding signal was > 10 fold worse than Aptamer 8.

Which binding signal does the source give for B9 here?
Its binding signal is > 10 fold worse than Aptamer 8.

How did the binding signal turn out when B10 was run?
The binding signal was > 10 fold worse than Aptamer 8.

B11 was tested. Which binding signal did it give?
Its binding signal is > 10 fold worse than Aptamer 8.

Does B12 bind?
Result: binds

With B13 as the binder, how does the binding signal read?
The binding signal was > 10 fold worse than Aptamer 8.

B14 was tested. Which binding signal did it give?
Its binding signal is > 10 fold worse than Aptamer 8.

Does B15 bind?
Result: binds

Same assay, conditions: tags: C-terminal 6xHis (Sino Biological); stem-loop

Does B16 bind?
Result: binds

Target: T1, Interleukin-8 (IL8, CXCL8), C-terminal …
Assay: competition; competition TR-FRET
Details: tags: C-terminal 6xHis (Sino Biological)
Remark: another data set of the same source
Protocol: as §1, with “To better understand the sequence requirements and to confirm the stem structures of members of the Aptamer 3 family as determined from sequence covariation analysis from both the primary and secondary (degenerate) selections, a series of variants which included mutations and deletions to the predicted stems were synthesized and screened (Table 24). Activity” for “Activity”
To test the effects of variation in this region on aptamer function, aptamer clones from Round 5 of the degenerate selection which had mutations in loop L3 were synthesized (Table 26). All of the compounds were tested in the competition TR-FRET assay.

For B17, which binding signal is on record?
The binding signal was > 10 fold better than Aptamer 3.

Does B18 bind?
Result: binds

Does B19 bind?
Result: binds

Does B20 bind?
Result: binds

Does B21 bind?
Result: binds

Does B22 bind?
Result: binds

Does B23 bind?
Result: binds

Does B24 bind?
Result: binds

Does B25 bind?
Result: binds

Does B26 bind?
Result: binds

Does B27 bind?
Result: binds

Does B28 bind?
Result: binds

Does B29 bind?
Result: binds

Does B30 bind?
Result: binds

Does B31 bind?
Result: binds

Target: T1, Interleukin-8 (IL8, CXCL8), C-terminal …
Assay: competition; competition TR-FRET
Details: tags: C-terminal 6xHis (Sino Biological)
Remark: another data set of the same source
Protocol: as §1, with “To better understand the sequence requirements and to confirm the stem structures of members of the Aptamer 3 family as determined from sequence covariation analysis from both the primary and secondary (degenerate) selections, a series of variants which included mutations and deletions to the predicted stems were synthesized and screened (Table 24). Activity” for “Activity”

Does B32 bind?
Result: binds

Does B33 bind?
Result: binds

Which binding signal does the source give for B34 here?
The binding signal was > 10 fold worse than Aptamer 3.

Does B35 bind?
Result: binds

Does B36 bind?
Result: binds

Does B37 bind?
Result: binds

Does B38 bind?
Result: binds

Does B39 bind?
Result: binds

Does B40 bind?
Result: binds

Same assay, conditions: tags: C-terminal 6xHis (Sino Biological); stem-loop

Does B41 bind?
Result: binds

Does B42 bind?
Result: binds

Reference: patent publication US20210230599, “STEM-LOOP COMPOSITIONS AND METHODS FOR INHIBITING INTERLEUKIN-8” (VITRISA THERAPEUTICS, INC., published 2021)
